Reference: US20220119490A1 (Genentech, published 2022)
Blank lines part the entries; values can stand above or below the binder they belong to.

Assays:
Experiment in all cases: cell surface interaction assay: query ECD tetramerised with fluorescent streptavidin on transfected cells, immunofluorescence
[1] = target: T1, UNC5A (human, UniProt Q6ZN44)
T1 construct: expressed on cells; also called UNC5A expressed on cells
T1 sequence (cell-surface-expressed binding partner, looked up): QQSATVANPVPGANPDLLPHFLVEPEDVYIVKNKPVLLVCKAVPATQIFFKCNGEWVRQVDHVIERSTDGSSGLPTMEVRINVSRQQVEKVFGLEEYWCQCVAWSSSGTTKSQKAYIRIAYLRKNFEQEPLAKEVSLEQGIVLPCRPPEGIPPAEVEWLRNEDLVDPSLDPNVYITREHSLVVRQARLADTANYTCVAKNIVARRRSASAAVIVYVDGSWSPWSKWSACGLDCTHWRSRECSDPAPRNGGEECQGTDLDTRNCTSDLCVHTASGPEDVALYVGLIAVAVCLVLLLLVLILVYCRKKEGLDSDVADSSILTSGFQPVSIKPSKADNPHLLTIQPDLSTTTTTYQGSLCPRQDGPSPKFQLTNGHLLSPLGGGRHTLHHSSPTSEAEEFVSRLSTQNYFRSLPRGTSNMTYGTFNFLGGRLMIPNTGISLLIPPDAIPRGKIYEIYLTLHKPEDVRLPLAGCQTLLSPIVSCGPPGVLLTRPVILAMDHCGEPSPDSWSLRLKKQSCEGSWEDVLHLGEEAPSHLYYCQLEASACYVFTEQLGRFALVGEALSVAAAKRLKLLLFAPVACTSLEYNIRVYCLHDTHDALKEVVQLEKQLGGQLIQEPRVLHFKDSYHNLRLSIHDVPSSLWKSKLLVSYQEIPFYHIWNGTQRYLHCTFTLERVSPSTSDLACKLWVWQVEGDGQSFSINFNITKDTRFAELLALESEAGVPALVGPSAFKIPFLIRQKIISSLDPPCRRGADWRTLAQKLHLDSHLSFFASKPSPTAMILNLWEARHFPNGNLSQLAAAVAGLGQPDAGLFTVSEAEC

[2] = target: T2, UNC5D (human, UniProt Q6UXZ4)
T2 construct: expressed on cells; also called UNC5D expressed on cells
T2 sequence (cell-surface-expressed binding partner, looked up): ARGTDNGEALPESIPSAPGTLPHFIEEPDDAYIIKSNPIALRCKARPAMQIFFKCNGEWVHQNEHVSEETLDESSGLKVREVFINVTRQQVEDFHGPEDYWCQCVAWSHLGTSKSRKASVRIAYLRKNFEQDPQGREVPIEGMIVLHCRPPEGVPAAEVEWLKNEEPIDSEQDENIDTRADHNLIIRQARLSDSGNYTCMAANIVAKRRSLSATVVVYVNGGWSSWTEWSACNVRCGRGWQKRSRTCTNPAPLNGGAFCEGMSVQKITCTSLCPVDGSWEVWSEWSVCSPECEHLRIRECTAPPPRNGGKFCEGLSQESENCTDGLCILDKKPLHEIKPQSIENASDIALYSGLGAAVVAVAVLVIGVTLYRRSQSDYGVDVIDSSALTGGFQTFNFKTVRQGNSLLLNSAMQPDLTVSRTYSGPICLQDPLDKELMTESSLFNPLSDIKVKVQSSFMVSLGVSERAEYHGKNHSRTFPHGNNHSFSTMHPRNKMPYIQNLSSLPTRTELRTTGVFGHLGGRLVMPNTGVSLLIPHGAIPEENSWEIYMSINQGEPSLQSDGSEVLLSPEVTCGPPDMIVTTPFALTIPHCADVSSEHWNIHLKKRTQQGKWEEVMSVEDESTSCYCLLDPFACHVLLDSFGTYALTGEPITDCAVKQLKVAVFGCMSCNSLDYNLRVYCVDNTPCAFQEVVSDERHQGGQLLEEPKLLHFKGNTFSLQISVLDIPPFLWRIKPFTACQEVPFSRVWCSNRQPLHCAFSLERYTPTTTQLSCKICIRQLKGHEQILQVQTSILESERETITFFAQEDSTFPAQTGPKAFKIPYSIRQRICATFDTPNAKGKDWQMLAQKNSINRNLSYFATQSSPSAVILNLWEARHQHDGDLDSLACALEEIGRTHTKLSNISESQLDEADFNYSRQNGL

[3] = target: T3, MDGA1 (human, UniProt Q8NFP4, biotinylated)
T3 construct: extracellular domain; also called MAM domain-containing glycosylphosphatidylinositol anchor protein 1; soluble query
T3 sequence (soluble query ectodomain, looked up): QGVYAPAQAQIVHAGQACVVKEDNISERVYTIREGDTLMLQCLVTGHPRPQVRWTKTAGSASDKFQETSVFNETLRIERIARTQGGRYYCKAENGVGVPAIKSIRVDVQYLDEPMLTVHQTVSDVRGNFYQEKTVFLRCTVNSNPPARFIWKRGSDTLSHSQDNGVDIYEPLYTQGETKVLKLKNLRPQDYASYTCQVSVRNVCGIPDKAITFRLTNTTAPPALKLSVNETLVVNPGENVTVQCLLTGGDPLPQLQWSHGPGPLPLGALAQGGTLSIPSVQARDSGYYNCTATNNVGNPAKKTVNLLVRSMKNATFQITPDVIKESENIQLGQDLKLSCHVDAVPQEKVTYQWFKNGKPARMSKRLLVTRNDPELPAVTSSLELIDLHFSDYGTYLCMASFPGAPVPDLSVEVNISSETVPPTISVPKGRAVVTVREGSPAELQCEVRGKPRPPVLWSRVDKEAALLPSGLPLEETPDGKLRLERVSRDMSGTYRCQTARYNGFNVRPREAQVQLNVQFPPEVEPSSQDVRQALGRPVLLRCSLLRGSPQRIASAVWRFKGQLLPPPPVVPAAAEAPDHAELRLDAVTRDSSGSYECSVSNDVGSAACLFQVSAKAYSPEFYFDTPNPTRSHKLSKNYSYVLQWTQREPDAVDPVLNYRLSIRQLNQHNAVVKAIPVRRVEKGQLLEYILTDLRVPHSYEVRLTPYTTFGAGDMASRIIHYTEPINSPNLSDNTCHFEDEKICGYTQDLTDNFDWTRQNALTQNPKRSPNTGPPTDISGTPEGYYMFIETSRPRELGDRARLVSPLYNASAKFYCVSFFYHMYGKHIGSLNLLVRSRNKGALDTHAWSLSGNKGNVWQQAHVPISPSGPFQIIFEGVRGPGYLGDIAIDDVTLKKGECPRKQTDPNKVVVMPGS

binding result [1]: binds
binding result [2]: binds
B1: FLRT3 (receptor, human, UniProt Q9NZU0 29-528, looked up)
soluble query ectodomain: KSCPSVCRCDAGFIYCNDRFLTSIPTGIPEDATTLYLQNNQINNAGIPSDLKNLLKVERIYLYHNSLDEFPTNLPKYVKELHLQENNIRTITYDSLSKIPYLEELHLDDNSVSAVSIEEGAFRDSNYLRLLFLSRNHLSTIPWGLPRTIEELRLDDNRISTISSPSLQGLTSLKRLVLDGNLLNNHGLGDKVFFNLVNLTELSLVRNSLTAAPVNLPGTNLRKLYLQDNHINRVPPNAFSYLRQLYRLDMSNNNLSNLPQGIFDDLDNITQLILRNNPWYCGCKMKWVRDWLQSLPVKVNVRGLMCQAPEKVRGMAIKDLNAELFDCKDSGIVSTIQITTAIPNTVYPAQGQWPAPVTKQPDIKNPKLTKDHQTTGSPSRKTITITVKSVTSDTIHISWKLALPMTALRLSWLKLGHSPAFGSITETIVTGERSEYLVTALEPDSPYKVCMVPMETSNLYLFDETPVCIETETAPLRMYNPTTTLNREQEKEPYKNPNLP
modifications: biotinylated
notes: extracellular domain; also called soluble query

binding result [3]: binds
B2: NLGN3 (receptor, human, UniProt Q9NZ94 38-848, looked up)
cell-surface-expressed binding partner: QAPAPTVNTHFGKLRGARVPLPSEILGPVDQYLGVPYAAPPIGEKRFLPPEPPPSWSGIRNATHFPPVCPQNIHTAVPEVMLPVWFTANLDIVATYIQEPNEDCLYLNVYVPTEDVKRISKECARKPNKKICRKGGSGAKKQGEDLADNDGDEDEDIRDSGAKPVMVYIHGGSYMEGTGNMIDGSILASYGNVIVITLNYRVGVLGFLSTGDQAAKGNYGLLDQIQALRWVSENIAFFGGDPRRITVFGSGIGASCVSLLTLSHHSEGLFQRAIIQSGSALSSWAVNYQPVKYTSLLADKVGCNVLDTVDMVDCLRQKSAKELVEQDIQPARYHVAFGPVIDGDVIPDDPEILMEQGEFLNYDIMLGVNQGEGLKFVEGVVDPEDGVSGTDFDYSVSNFVDNLYGYPEGKDTLRETIKFMYTDWADRDNPETRRKTLVALFTDHQWVEPSVVTADLHARYGSPTYFYAFYHHCQSLMKPAWSDAAHGDEVPYVFGVPMVGPTDLFPCNFSKNDVMLSAVVMTYWTNFAKTGDPNKPVPQDTKFIHTKANRFEEVAWSKYNPRDQLYLHIGLKPRVRDHYRATKVAFWKHLVPHLYNLHDMFHYTSTTTKVPPPDTTHSSHITRRPNGKTWSTKRPAISPAYSNENAQGSWNGDQDAGPLLVENPRDYSTELSVTIAVGASLLFLNVLAFAALYYRKDKRRQEPLRQPSPQRGAGAPELGAAPEEELAALQLGPTHHECEAGPPHDTLRLTALPDYTLTLRRSPDDIPLMTPNTITMIPNSLVGLQTLHPYNTFAAGFNSTGLPHSHSTTRV
notes: expressed on cells; also called NLGN3 expressed on cells
